{
  "source": "paper PMC4453921",
  "about": "“Crystal structure of caspase recruiting domain (CARD) of apoptosis repressor with CARD (ARC) and its implication in inhibition of apoptosis” (Scientific Reports, 2015)",
  "biological_target": "the molecule itself",
  "test": "SEC-MALS; Superdex 200 HR 10/30 equilibrated in appropriate buffer, coupled to three-angle light scattering and refractive index detectors, 0.2 ml/min",
  "data": [
    {"protein": "ARC CARD domain (amino acids 1-95), wild type (domain or fragment, human, UniProt O60936 1-95, looked up, Apoptosis repressor with caspase recruiting domain (ARC), human (208 amino acids), CARD domain, amino acids 1-95; Expression and purification are said to be described in detail elsewhere; A selenomethionine-substituted form was made for SAD phasing; also called CARD domain of ARC; caspase recruiting domain of apoptosis repressor with CARD; not shown: His-tag, C-terminal, kept) MGNAQERPSETIDRERKRLVETLQADSGLLLDALLARGVLTGPEYEALDALPDAERRVRRLLLLVQGKGEAACQELLRCAQRTAGAPDPAWDWQH", "values": [
      {"measurement": "stoichiometry N", "value": 2}
    ]}
  ]
}
